Molecular target: Aspergillus sydowii UBOCC-A-108050 SULT (Aspergillus sydowii UBOCC-A-108050)
Test: SEC; calibrated size exclusion chromatography of the purified recombinant protein alone (self-association)

stoichiometry N: 2
Substance: Aspergillus sydowii UBOCC-A-108050 SULT (enzyme)

Source: paper PMC11677658
